These are literature values, as cited in publication PMC10299984 (Diabetes Therapy, 2023).

The conditions of this series: 36 healthy participants.

As for insulin glargine [iGlar], the INS-tmax was 12 h.
